Laboratory results: the RNAGym collection of RNA variant scans (doi:10.1073/pnas.2313332121)
Variants at the floor of the assay were thinned out.

B1: TPR 5TU (parent)
chain: GGAUCUUCUCGAUCUAACAAAAAAGACAAAUCUGCCACAAAGCUUGAGAGCAUCUUCGGAUGCAGAGGCGGCAGCCUUCGGUGGCGCGAUAGCGCCAACGUUCUCAACUAUGACACGCAAAACGCGUGCUCCGUUGAAUGGAGUUUAUCAUG

Variants of: B1
Assay: polymerase ribozyme fitness, log enrichment relative to wild type (log ratio); higher = more active; in vitro selection for triplet polymerase activity
Outline: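 Mutant libraries of both subunits of a heterodimeric triplet polymerase ribozyme were PCR-built, transcribed, and selected once in triplicate, with frozen incubation at −7 °C and capture of gel-excised extended constructs on streptavidin beads before RT-PCR. Illumina sequencing of input and output libraries was filtered to genotypes with ≥10 input reads and ≥1 read per output. Fitness is the logarithm of genotype enrichment over wild-type enrichment, using inverse-variance-weighted replicate averages. The logarithm is base 2.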

Question: Which “polymerase ribozyme fitness (log ratio)” value does the source give for GGAUCUUCUCGAUCUAACAAAAAAGACAAAUCUGCCGCAAAGCUUGAGAGCAUCUACGGAUGCAGAGGCGGCAGCCUUCGGUGAUGCGAUAGCGCCAACGUUCUCAACUAUGACACGCAAAACGCGUGCUCCCUUGAAUGGAGUUUAUCAUG [A37G U56A G84A C85U G133C] here?
Answer: -4.13

Question: For GGAUCUUCUCGAUCUAACAAAAAAGACAAAUCUGCCGCAAAGCUUGAGAGCAUCAUCGGAUGCAGGGGCGGCAGUCUUCGGUGGAGCGAUAGCGCCAACGUUCUCAACUAUGACACGCAAAUCGCGUGCUCCGUUGAAUGGAGUUUAUCAUG [A37G U55A A66G C75U C85A A122U], which “polymerase ribozyme fitness (log ratio)” value is on record?
Answer: ≤ -4.2

Question: Which “polymerase ribozyme fitness (log ratio)” value does the source give for GGAUCUUCUCGAUCUAACAAAAAAGACAAAUCUGCCGCAAAGCUAGAGAGCAUCUUCGGAUGCAGAGGCGGCAGCCUUCGGUGGCGCGAUAGCGCUAACGUUCUCAACUAUGACACGCAAAACGCGUGCUCCGUUGAAUGGAGUUUAUCAUG [A37G U45A C96U] here?
Answer: ≤ -4.2

Question: With GGAUCUUCUCGAUCUAACAAAAAAGACAAAUCUGCCGCAAAGCUUGAGAGCAUCGUCGGAUGCAGAGGCGGCAGCCUUCGGUGGGGCGAUAGCGCCAACGUUCUCAACUAUGACACGCAAAACGCGUGCUCCGUUGAAUGGAGUUUAUCAUG [A37G U55G C85G] as the variant, how does the “polymerase ribozyme fitness (log ratio)” value read?
Answer: -3.49

Question: With GGAUCUUCUCGAUCUAACAAAAAAGACAAAUCUGCCGCAAAGCUUGAGAGCAUCUUCGGAAGCAGAGGCGGCAGCCUUCGGUGGCGCGAUAGCGCCAACGUUCUCAACUAUGACACGCAAAACGCGUGCUCCGUUGAAUGCAGUUUACCAUG [A37G U61A G141C U148C] as the variant, how does the “polymerase ribozyme fitness (log ratio)” value read?
Answer: ≤ -4.2

Question: With GGAUCUUCUCGAUCUAACAAAAAAGACAAAUCUGCCGCAAAGCUUGAGAGCAACUUCGGAUGCAGAGGCGGCAGCCUUCGGUGGCGCGAUAGCGCCAACGUUCUCAACUAUGACACGCAAAACGCGUGCUCCGGUGAAUGGAGUUUAUCAUG [A37G U53A U134G] as the variant, how does the “polymerase ribozyme fitness (log ratio)” value read?
Answer: -3.7

Question: Which “polymerase ribozyme fitness (log ratio)” value does the source give for GGAUCUUCUCGAUCUAACAAAAAAGACAAAUCUGCCUCAAAGCUUGAGAGCAUCUUCGGAUGCAGAGGCGGCAGCCUUCGGUGGCGCGAUAGCGCCAACGUUCUCAACUAUGACACGCAAAACGCGUGCUCCGUUGAAUGGAGUUUAUCAUG [A37U] here?
Answer: -1.11

Question: With GGAUCUUCUCGAUCUAACAAAAAAGACAAAUCUGCCGCAAAGCUGGAGAGCAUCUUGGGAUGCAGAGGCGGCAGCCUUCGGUGGCGCGAUAGCGUCAACGUUCUCAACUAUGACACGCAAAACGCGUGCUCCGUUGAAUGGAGUUUAUCAUG [A37G U45G C57G C95U] as the variant, how does the “polymerase ribozyme fitness (log ratio)” value read?
Answer: -3.33

Question: For GGAUCUUCUCGAUCUAACAAAAAAGACAAAUCUGCCGCAAAGCUAGAGAGCAUCUUCGGAUGCAGAGGCGGCAGCGUUCGGGGGCGCGAUAGGGCCAACGUUCUCAACUAUGCCACGCAAAACGCGUGCUCCGUUUAAUGGAGUUUAUCAUG [A37G U45A C76G U82G C93G A113C G136U], which “polymerase ribozyme fitness (log ratio)” value is on record?
Answer: ≤ -4.2

Question: For GGAUCUUCUCGAUCUAACAAAAAAGACAAAUCUGCCGCAAAGCUUGAGAGCAUCUUCGGACGCAGAGGCGGCAGCCUUCGGUGGCGCGAUAGCUCCAACGUUCUCAACUAUGACACGCAAAACGCGUGCUCCGUUGAAUGGAGUCUAUCAUG [A37G U61C G94U U145C], which “polymerase ribozyme fitness (log ratio)” value is on record?
Answer: ≤ -4.2

Question: Which “polymerase ribozyme fitness (log ratio)” value does the source give for GGAUCUUCUCGAUCUAACAAAAAAGACAAAUCUGCCUCACAGCUUGAGAGCAUCAUCAAAUGCAGAGGCGGCAGCCUUCGGUGCCGCGAUAGCGCCAACGUUCUCAACUAUGACACGCAAAACGCAUGCUCCGUUGAAUGGAGUUUAUCAUG [A37U A40C U55A G58A G59A G84C G126A] here?
Answer: -4.07

Question: With GGAUCUUCUCGAUCUAACAAAAAAGACAAAUCUGCCUCAAAGCUUGAGCGCAUCUUCGGAUGGAGAGGCGGCAGCCUUCGGUGGCGGGAUAGCGCCAACGUUCUCAACUAUGACACGCAAAACUCGUGCUCCGUUGAAUGGAGUUUAUCAUG [A37U A49C C63G C87G G124U] as the variant, how does the “polymerase ribozyme fitness (log ratio)” value read?
Answer: ≤ -4.2

Question: For GGAUCUUCUCGAUCUAACAAAAAAGACAAAUCUGCCGCAAAGCUUGAGAGCAUCUUCGGAUGCAGAGGCGGCAGCCUACGGUGGCGCGAUAGGGCCAACGUUCUCAACUAUGACAUGCAAAACGCGUGCUCCGUUGAAUGGAGUUUAUCAUG [A37G U78A C93G C116U], which “polymerase ribozyme fitness (log ratio)” value is on record?
Answer: ≤ -4.2

Question: With GGAUCUUCUCGAUCUAACAAAAAAGACAAAUCUGCCUCAAAGCUUGCGAGCAUCUUCGGAUGCAGAGGCGGCAGCCUUCGGUGGUGCGAUAGCGUCAACGUUCUCAACUAUGCCACGCAAAACGCGUGCUCCGUUGAAUGGAGUUUAACAUU [A37U A47C C85U C95U A113C U148A G152U] as the variant, how does the “polymerase ribozyme fitness (log ratio)” value read?
Answer: ≤ -4.2

Question: For GGAUCUUCUCGAUCUAACAAAAAAGACAAAUCUGCCGCAAAGCUUGAGAGCAUCUUCGGAUGCAGAGGCGGCAGCCAUCGGUGGCGAGAUAGCGCCAAUGUUCUCAACUAUGACACGCAAAACGCGUGCUCCGUUGAAUCGAGUUUUUCAUG [A37G U77A C87A C99U G140C A147U], which “polymerase ribozyme fitness (log ratio)” value is on record?
Answer: ≤ -4.2

Question: With GGAUCUUCUCGAUCUAACAAAAAAGACAAAUCUGCCGCAAAGCUUGAGAGCAUCUUCGGAUGCAGAGGCGGCAGCCUUCGGUGGCGCGAUAGCGCCAACGUUCUCAACUAUGACACGCAAAACACGUGCUCCGUUGAAUGGAGUUUAUCAUG [A37G G124A] as the variant, how does the “polymerase ribozyme fitness (log ratio)” value read?
Answer: -2.19

Question: Which “polymerase ribozyme fitness (log ratio)” value does the source give for GGAUCUUCUCGAUCUAACAAAAAAGACAAAUCUGCCGCAAAGCUUGAGAGCAUCUUCGGAUGCAGAGGCGGCAGCCUUCGGUGGCGCGAUAGCGCCAACGUUCUCAACUAUGACACUCAAAACGCGUGCUCCGUUGAAUGGAGUUUAUCAUG [A37G G117U] here?
Answer: -2.18

Question: With GGAUCUUCUCGAUCUAACAAAAAAGACAAAUCUGCCGCAAAGCUUGAGAGCAUCUUCGGAUGCAGAGGCGGCAGCCUUCGGUGGCGCGAUAGCACCAACGUUCUCAACUAUGACACGCAAAACGCGUGCUCCGUUGAAUGGAGUUUAUCAUG [A37G G94A] as the variant, how does the “polymerase ribozyme fitness (log ratio)” value read?
Answer: -1.49

Question: For GGAUCUUCUCGAUCUAACAAAAAAGACAAAUCUGCCGCAAAGCAUGAGAGCCUCUUCGGAUGCAGAGGCGGCAGCCUUCGGUGGCUCGAUAGCGUCAACGGUCUCAACUAUGACACGCAAAACGCGUGCUCCGUUGAAUGGAGCUUAUCAUG [A37G U44A A52C G86U C95U U101G U144C], which “polymerase ribozyme fitness (log ratio)” value is on record?
Answer: ≤ -4.2
